{
  "source": "paper PMC6080600",
  "about": "(Nature structural & molecular biology, 2018)",
  "molecular_target": "the molecule itself",
  "test": "cryo-EM structure",
  "data": [
    {"protein": "zebrafish RAG1 (recombination-activating gene 1 protein), residues 271-1031, with N-terminal 6xHis-MBP tag (domain or fragment, UniProt O13033 271-1031, looked up) RCQRDHLSTKLIPTEVPADLIRAVTCQVCDHLLSDPVQSPCRHLFCRLCIIRYTHALGPNCPTCNQHLNPSHLIKPAKFFLATLSSLPLLCPSEECSDWVRLDSFREHCLNHYREKESQEEQTPSEQNLDGYLPVNKGGRPRQHLLSLTRRAQKHRLRDLKNQVKTFAEKEEGGDVKSVCLTLFLLALRAGNEHKQADELEAMMQGRGFGLHPAVCLAIRVNTFLSCSQYHKMYRTVKATSGRQIFQPLHTLRNAEKELLPGFHQFEWQPALKNVSTSWDVGIIDGLSGWTVSVDDVPADTISRRFRYDVALVSALKDLEEDIMEGLRERALDDSMCTSGFTVVVKESCDGMGDVSEKHGSGPAVPEKAVRFSFTIMSISIRLEGEDDGITIFQEQKPNSELSCRPLCLMFVDESDHETLTAILGPVVAERKAMMESRLIISVGGLLRSFRFFFRGTGYDEKMVREMEGLEASGSTYICTLCDSTRAEASQNMVLHSITRSHDENLERYEIWRKNPFSESADELRDRVKGVSAKPFMETQPTLDALHCDIGNATEFYKIFQDEIGEVYQKPNPSREERRRWRSTLDKQLRKKMKLKPVMRMNGNYARRLMTREAVEAVCELVPSEERREALLKLMDLYLQMKPVWRSTCPSRDCPDQLCQYSYNSQQFADLLSSMFKYRYDGKITNYLHKTLAHVPEIVERDGSIGAWASEGNESGNKLFRRFRKMNARQSKTFELEDILKHHWLYTSKYLQKFMEAHKNS", "values": [
      {"measurement": "stoichiometry N", "result": 2}
    ]}
  ]
}
